Assay results from paper PMC3636079, “Determinants at the N- and C-termini of Gα12 required for activation of Rho-mediated signaling” (Journal of Molecular Signaling, 2013).

B1: myc-tagged Gα12 Gln^229Leu (myc-Gα12^QL) [not stated] / GST fusion of protein phosphatase-5 [not stated] (parent)
chain 1: MSGVVRTLSRCLLPAEAGARERRAGAARDAEREARRRSRDIDALLARERRAVRRLVKILLLGAGESGKSTFLKQMRIIHGREFDQKALLEFRDTIFDNILKGSRVLVDARDKLGIPWQHSENEKHGMFLMAFENKAGLPVEPATFQLYVPALSALWRDSGIREAFSRRSEFQLGESVKYFLDNLDRIGQLNYFPSKQDILLARKATKGIVEHDFVIKKIPFKMVDVGGLRSQRQKWFQCFDGITSILFMVSSSEYDQVLMEDRRTNRLVESMNIFETIVNNKLFFNVSIILFLNKMDLLVEKVKSVSIKKHFPDFKGDPHRLEDVQRYLVQCFDRKRRNRSKPLFHHFTTAIDTENIRFVFHAVKDTILQENLKDIMLQ
chain 2: MAMAEGERTECAEPPRDEPPADGALKRAEELKTQANDYFKAKDYENAIKFYSQAIELNPSNAIYYGNRSLAYLRTECYGYALGDATRAIELDKKYIKGYYRRAASNMALGKFRAALRDYETVVKVKPHDKDAKMKYQECNKIVKQKAFERAIAGDEHKRSVVDSLDIESMTIEDEYSGPKLEDGKVTISFMKELMQWYKDQKKLHRKCAYQILVQVKEVLSKLSTLVETTLKETEKITVCGDTHGQFYDLLNIFELNGLPSETNPYIFNGDFVDRGSFSVEVILTLFGFKLLYPDHFHLLRGNHETDNMNQIYGFEGEVKAKYTAQMYELFSEVFEWLPLAQCINGKVLIMHGGLFSEDGVTLDDIRKIERNRQPPDSGPMCDLLWSDPQPQNGRSISKRGVSCQFGPDVTKAFLEENNLDYIIRSHEVKAEGYEVAHGGRCVTVFSAPNYCDQMGNKASYIHLQGSDLRPQFHQFTAVPHPNVKPMAYANTLLQLGMM

Variants of: B1
Assay: GST pull-down (co-precipitation), immunoblot pulldown:load ratio
Details: with GST fusion of protein phosphatase-5; grade: ++; mean of two or more trials; parent: 100

percent of parent (% of myc-Gα12QL pulldown:load ratio)	Variant
> 60	chain 1 MSGVVRTLSRCLLPAEAGARERRAGAARDAEREARRRSRDIDALLARERRAVRRLVKILLLGAGESGKSTFLKQMRIIHGREFDQKALLEFRDTIFDNILKGSRVLVDARDKLGIPWQHSENEKHGMFLMAFENKAGLPVEPATFQLYVPALSALWRDSGIREAFSRRSEFQLGESVKYFLDNLDRIGQLNYFPSKQDILLARKATKGIVEHDFVIKKIPFKMVDVGGLRSQRQKWFQCFDGITSILFMVSSSEYDQVLMEDRRTNRLVESMNIFETIVNNKLFFNVSIILFLNKMDLLVEKVKSVSIKKHFPDFNAAIRSLEDVQRYLVQCFDRKRRNRSKPLFHHFTTAIDTENIRFVFHAVKDTILQENLKDIMLQ [chain 1 K316N G317A D318A P319I H320R R321S]
> 60	chain 1 MSGVVRTLSRCLLPAEAGARERRAGAARDAEREARRRSRDIDALLARERRAVRRLVKILLLGAGESGKSTFLKQMRIIHGREFDQKALLEFRDTIFDNILKGSRVLVDARDKLGIPWQHSENEKHGMFLMAFENKAGLPVEPATFQLYVPALSALWRDSGIREAFSRRSEFQLGESVKYFLDNLDRIGQLNYFPSKQDILLARKATKGIVEHDFVIKKIPFKMVDVGGLRSQRQKWFQCFDGITSILFMVSSSEYDQVLMEDRRTNRLVESMNIFETIVNNKLFFNVSIILFLNKMDLLVEKVKSVSIKKHFPDFKGDPHRLEDVQRYLVQCFDRKRRNRSKPLFHHFTTANAAIRSRFVFHAVKDTILQENLKDIMLQ [chain 1 I352N D353A T354A E355I N356R I357S]
> 60	chain 1 MSGVVRTLSRCLLPAEAGARERRAGAARDAEREARRRSRDIDALLARERRANAAIRSILLLGAGESGKSTFLKQMRIIHGREFDQKALLEFRDTIFDNILKGSRVLVDARDKLGIPWQHSENEKHGMFLMAFENKAGLPVEPATFQLYVPALSALWRDSGIREAFSRRSEFQLGESVKYFLDNLDRIGQLNYFPSKQDILLARKATKGIVEHDFVIKKIPFKMVDVGGLRSQRQKWFQCFDGITSILFMVSSSEYDQVLMEDRRTNRLVESMNIFETIVNNKLFFNVSIILFLNKMDLLVEKVKSVSIKKHFPDFKGDPHRLEDVQRYLVQCFDRKRRNRSKPLFHHFTTAIDTENIRFVFHAVKDTILQENLKDIMLQ [chain 1 V52N R53A R54A L55I V56R K57S]
> 60	chain 1 MSGVVRTLSRCLLPAEAGARERRAGAANAAIRSARRRSRDIDALLARERRAVRRLVKILLLGAGESGKSTFLKQMRIIHGREFDQKALLEFRDTIFDNILKGSRVLVDARDKLGIPWQHSENEKHGMFLMAFENKAGLPVEPATFQLYVPALSALWRDSGIREAFSRRSEFQLGESVKYFLDNLDRIGQLNYFPSKQDILLARKATKGIVEHDFVIKKIPFKMVDVGGLRSQRQKWFQCFDGITSILFMVSSSEYDQVLMEDRRTNRLVESMNIFETIVNNKLFFNVSIILFLNKMDLLVEKVKSVSIKKHFPDFKGDPHRLEDVQRYLVQCFDRKRRNRSKPLFHHFTTAIDTENIRFVFHAVKDTILQENLKDIMLQ [chain 1 R28N D29A E31I E33S]
> 60	chain 1 MSGVVRTLSRCLLPAEAGARERRAGAARDAEREARRRSRDIDALLARERRAVRRLVKILLLGAGESGKSTFLKQMRIIHGREFDQKALLEFRDTIFDNILKGSRVLVDARDKLGIPWQHSENEKHGMFLMAFENKAGLPVEPATFQLYVPALSALWRDSGIREAFSRRSEFQLGESVKYFLDNLDRIGQLNYFPSKQDILLARKATKGIVEHDFVIKKIPFKMVDVGGLRSQRQKWFQCFDGITSILFMVSSSEYDQVLMEDRRTNRLVESMNIFETIVNNKLFFNVSIILFLNKMDLLVEKVKSVSIKKHFPDFKGDPHRLEDVQRYLVQCFDRKRRNRSKPLFHHFTTAIDTENINAAIRSVKDTILQENLKDIMLQ [chain 1 R358N F359A V360A F361I H362R A363S]
> 60	chain 1 MSGVVRTLSRCLLPAEAGARERRAGAARDAEREARRRSRDIDALLARERRAVRRLVKILLLGAGESGKSTFLKQMRIIHGREFDQKALLEFRDTIFDNILKGSRVLVDARDKLGIPWQHSENEKHGMFLMAFENKAGLPVEPATFQLYVPALSALWRDSGIREAFSRRSEFQLGESVKYFLDNLDRIGQLNYFPSKQDILLARKATKGIVEHDFVIKKIPFKMVDVGGLRSQRQKWFQCFDGITSILFMVSSSEYDQVLMEDRRTNRLVESMNIFETIVNNKLFFNVSIILFLNKMDLLVEKVKSVSIKKHFPDFKGDPHRLEDVQRYLVQCFDRKRRNRSKPLFNAAIRSIDTENIRFVFHAVKDTILQENLKDIMLQ [chain 1 H346N H347A F348A T349I T350R A351S]
> 60	chain 1 MSGVVRTLSRCLLPAEAGARERRAGAARDAEREARRRSRDIDALLARERRAVRRLVKILLLGAGESGKSTFLKQMRIIHGREFDQKALLEFRDTIFDNILKGSRVLVDARDKLGIPWQHSENEKHGMFLMAFENKAGLPVEPATFQLYVPALSALWRDSGIREAFSRRSEFQLGESVKYFLDNLDRIGQLNYFPSKQDILLARKATKGIVEHDFVIKKIPFKMVDVGGLRSQRQKWFQCFDGITSILFMVSSSEYDQVLMEDRRTNRLVESMNIFETIVNNKLFFNVSIILFLNKMDLLVEKVKSVSIKKHFPDFKGDPHRLEDVQRYLVQCFDRKRRNNAAIRSHHFTTAIDTENIRFVFHAVKDTILQENLKDIMLQ [chain 1 R340N S341A K342A P343I L344R F345S]
